# Results: patent publication US20230158141A1 (YAFEI SHANGHAI BIOLOG MEDICINE SCIENCE AND TECHNOLOGY, published 2023)
# Numbering of substitutions follows the chain as printed. In names and notes the source's numbering stands.
# B1: anti-PD-1 antibody 2 light chain A25C-R4-5 (antibody, human IgG4 S228P, kappa, V domains shown)
# VH: QVQLVESGGGVVQPGRSLRLDCKASGITFSNSGMHWVRQAPGKGLEWVAVIWYDGSKRYYADSVKGRFTISRDNSKNTLFLQMNSLRAEDTAVYYCATNDDYWGQGTLVTVSS
# VL: EIVLTQSPATLSLSPGERATLSCRCSQSVSSYLAWYQQKPGQAPRLLIYDASNRATGIPARFSGSGSGTDFTLTISSLEPEDFAVYYCQQSSNWPRTFGQGTKVEIKR
# modifications: R4-5 on Cys 25
# B2: anti-PD-1 antibody 2 light chain T56C-R4-5 (antibody, human IgG4 S228P, kappa, V domains shown)
# VH: B1 VH
# VL: B1 VL with C25A, T56C
# modifications: R4-5 on Cys 56
# B3: anti-PD-1 antibody 2 light chain Y32C-R4-1 (antibody, human IgG4 S228P, kappa, V domains shown)
# VH: B1 VH
# VL: B1 VL with C25A, Y32C
# modifications: R4-1 on Cys 32
# B4: anti-PD-1 antibody 2 light chain A34C-R4-5 (antibody, human IgG4 S228P, kappa, V domains shown)
# VH: B1 VH
# VL: B1 VL with C25A, A34C
# modifications: R4-5 on Cys 34
# B5: anti-PD-1 antibody 2 light chain S30C-R4-1 (antibody, human IgG4 S228P, kappa, V domains shown)
# VH: B1 VH
# VL: B1 VL with C25A, S30C
# modifications: R4-1 on Cys 30
# B6: anti-PD-1 antibody 2 light chain S92C-R4-1 (antibody, human IgG4 S228P, kappa, V domains shown)
# VH: B1 VH
# VL: B1 VL with C25A, S92C
# modifications: R4-1 on Cys 92
# B7: anti-PD-1 antibody 2 light chain S31C-R4-1 (antibody, human IgG4 S228P, kappa, V domains shown)
# VH: B1 VH
# VL: B1 VL with C25A, S31C
# modifications: R4-1 on Cys 31
# B8: anti-CD28 antibody heavy chain G54C-R4-1 (antibody, human IgG4, kappa, V domains shown)
# VH: QVQLVQSGAEVKKPGASVKVSCKASGYTFTSYYIHWVRQAPGQGLEWIGCIYPCNVNTNYNEKFKDRATLTVDTSISTAYMELSRLRSDDTAVYFCTRSHYGLDWNFDVWGQGTTVTVSS
# VL: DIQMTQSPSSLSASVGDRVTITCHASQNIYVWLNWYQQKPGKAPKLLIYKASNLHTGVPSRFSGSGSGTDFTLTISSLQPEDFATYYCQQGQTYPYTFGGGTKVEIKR
# modifications: R4-1 on Cys 54
# B9: anti-CD28 antibody heavy chain T30C-R4-1 (antibody, human IgG4, kappa, V domains shown)
# VH: B8 VH with T30C, C54G
# VL: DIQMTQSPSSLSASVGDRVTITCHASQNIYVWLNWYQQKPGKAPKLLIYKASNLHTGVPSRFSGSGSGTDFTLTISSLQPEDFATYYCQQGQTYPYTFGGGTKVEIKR
# modifications: R4-1 on Cys 30
# B10: anti-CD28 antibody heavy chain T58C-R4-1 (antibody, human IgG4, kappa, V domains shown)
# VH: B8 VH with C54G, T58C
# VL: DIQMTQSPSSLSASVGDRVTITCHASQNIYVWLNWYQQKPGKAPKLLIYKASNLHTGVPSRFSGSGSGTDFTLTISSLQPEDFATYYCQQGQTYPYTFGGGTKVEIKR
# modifications: R4-1 on Cys 58
# B11: anti-CD28 antibody heavy chain S99C-R4-1 (antibody, human IgG4, kappa, V domains shown)
# VH: B8 VH with C54G, S99C
# VL: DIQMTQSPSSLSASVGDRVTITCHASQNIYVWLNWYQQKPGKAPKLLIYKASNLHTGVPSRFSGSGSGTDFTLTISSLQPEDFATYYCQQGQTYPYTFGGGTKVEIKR
# modifications: R4-1 on Cys 99
# B12: anti-CD28 antibody heavy chain S31C-R4-1 (antibody, human IgG4, kappa, V domains shown)
# VH: B8 VH with S31C, C54G
# VL: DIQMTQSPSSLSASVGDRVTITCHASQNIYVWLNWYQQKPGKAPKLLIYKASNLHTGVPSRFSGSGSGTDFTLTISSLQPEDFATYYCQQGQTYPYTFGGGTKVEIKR
# modifications: R4-1 on Cys 31
# B13: anti-CD28 antibody heavy chain G102C-R4-1 (antibody, human IgG4, kappa, V domains shown)
# VH: B8 VH with C54G, G102C
# VL: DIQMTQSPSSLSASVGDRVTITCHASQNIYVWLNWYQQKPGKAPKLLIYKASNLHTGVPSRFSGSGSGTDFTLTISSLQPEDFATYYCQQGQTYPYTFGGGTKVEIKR
# modifications: R4-1 on Cys 102
# B14: anti-CD28 antibody heavy chain Y52C-R4-4 (antibody, human IgG4, kappa, V domains shown)
# VH: B8 VH with Y52C, C54G
# VL: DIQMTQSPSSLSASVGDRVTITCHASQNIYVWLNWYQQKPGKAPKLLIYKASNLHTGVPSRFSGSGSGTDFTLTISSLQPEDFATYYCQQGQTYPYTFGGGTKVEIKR
# modifications: R4-4 on Cys 52
# B15: anti-CD28 antibody heavy chain Y27C-R4-4 (antibody, human IgG4, kappa, V domains shown)
# VH: B8 VH with Y27C, C54G
# VL: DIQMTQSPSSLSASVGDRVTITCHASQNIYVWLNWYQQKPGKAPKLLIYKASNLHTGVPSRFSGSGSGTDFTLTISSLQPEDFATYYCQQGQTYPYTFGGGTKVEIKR
# modifications: R4-4 on Cys 27
# B16: anti-PD-1 antibody 1 heavy chain I51C (antibody, human IgG4 S228P, kappa, V domains shown)
# VH: QVQLVQSGVEVKKPGASVKVSCKASGYTFTNYYMYWVRQAPGQGLEWMGGCNPSNGGTNFNEKFKNRVTLTTDSSTTTAYMELKSLQFDDTAVYYCARRDYRFDMGFDYWGQGTTVTVSS
# VL: EIVLTQSPATLSLSPGERATLSCRASKGVSTSGYSYLHWYQQKPGQAPRLLIYLASYLESGVPARFSGSGSGTDFTLTISSLEPEDFAVYYCQHSRDLPLTFGGGTKVEIKR
# B17: anti-PD-1 antibody 1 heavy chain K63C (antibody, human IgG4 S228P, kappa, V domains shown)
# VH: B16 VH with C51I, K63C
# VL: B16 VL
# B18: anti-PD-1 antibody 1 heavy chain Y35C (antibody, human IgG4 S228P, kappa, V domains shown)
# VH: B16 VH with Y35C, C51I
# VL: B16 VL
# B19: anti-PD-1 antibody 2 heavy chain A61C (antibody, human IgG4 S228P, kappa, V domains shown)
# VH: B1 VH with A61C
# VL: B1 VL with C25A
# B20: anti-PD-1 antibody 2 heavy chain D54C (antibody, human IgG4 S228P, kappa, V domains shown)
# VH: B1 VH with D54C
# VL: B1 VL with C25A
# B21: anti-PD-1 antibody 2 heavy chain I51C (antibody, human IgG4 S228P, kappa, V domains shown)
# VH: B1 VH with I51C
# VL: B1 VL with C25A
# B22: anti-PD-1 antibody 2 heavy chain D101C (antibody, human IgG4 S228P, kappa, V domains shown)
# VH: B1 VH with D101C
# VL: B1 VL with C25A
# B23: anti-CTLA-4 antibody heavy chain A61C (antibody, human IgG1, kappa, V domains shown)
# VH: QVQLVESGGGVVQPGRSLRLSCAASGFTFSSYTMHWVRQAPGKGLEWVTFISYDGNNKYYCDSVKGRFTISRDNSKNTLYLQMNSLRAEDTAIYYCARTGWLGPFDYWGQGTLVTVSS
# VL: not shown
# B24: anti-CTLA-4 antibody heavy chain L102C (antibody, human IgG1, kappa, V domains shown)
# VH: B23 VH with C61A, L102C
# VL: not shown
# B25: anti-CTLA-4 antibody heavy chain S31C (antibody, human IgG1, kappa, V domains shown)
# VH: B23 VH with S31C, C61A
# VL: not shown
# B26: anti-CTLA-4 antibody heavy chain T33C (antibody, human IgG1, kappa, V domains shown)
# VH: B23 VH with T33C, C61A
# VL: not shown
# B27: anti-CTLA-4 antibody heavy chain S30C (antibody, human IgG1, kappa, V domains shown)
# VH: B23 VH with S30C, C61A
# VL: not shown
# B28: anti-CTLA-4 antibody heavy chain G66C (antibody, human IgG1, kappa, V domains shown)
# VH: B23 VH with C61A, G66C
# VL: not shown
# B29: anti-CTLA-4 antibody heavy chain S63C (antibody, human IgG1, kappa, V domains shown)
# VH: B23 VH with C61A, S63C
# VL: not shown
# B30: anti-CTLA-4 antibody heavy chain G55C (antibody, human IgG1, kappa, V domains shown)
# VH: B23 VH with G55C, C61A
# VL: not shown
# Molecular target: T1, PD-1 (UniProt Q15116 25-167, limits assumed)
# Assay: ELISA, conjugate vs WT antibody
# T1 sequence (Q15116 25-167 limits assumed): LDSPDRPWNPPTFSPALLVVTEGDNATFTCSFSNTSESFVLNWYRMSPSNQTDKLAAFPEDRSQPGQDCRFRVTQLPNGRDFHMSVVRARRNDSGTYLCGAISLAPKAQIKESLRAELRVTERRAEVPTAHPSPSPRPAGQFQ
row,Binder,binding activity (% of WT)
1,B1,87.2%
2,B2,89.4%
3,B3,25.6%
4,B4,83.9%
5,B5,34.4%
6,B6,45.5%
7,B7,95.7%

# Molecular target: CD28 (UniProt P10747 19-152, limits assumed)
# Assay: ELISA, conjugate vs WT antibody
row,Binder,binding activity (% of WT)
1,B8,97.9%
2,B9,87.3%
3,B10,89.3%
4,B11,87.6%
5,B12,97.5%
6,B13,80.1%
7,B14,91.6%
8,B15,94.2%

# Molecular target: T1, PD-1
# Assay: ELISA, OD mutant/OD WT; B=70-90%
row,Binder,binding activity (OD after mutation/OD wild type)
1,B16,70 to 90%
2,B17,70 to 90%
3,B18,70 to 90%
4,B19,70 to 90%
5,B20,70 to 90%
6,B21,70 to 90%
7,B22,70 to 90%

# Molecular target: CTLA-4 (UniProt P16410 36-162, limits assumed)
# Assay: ELISA, OD mutant/OD WT; A=90-110%
# Chain of CTLA-4 (P16410 36-162 limits assumed): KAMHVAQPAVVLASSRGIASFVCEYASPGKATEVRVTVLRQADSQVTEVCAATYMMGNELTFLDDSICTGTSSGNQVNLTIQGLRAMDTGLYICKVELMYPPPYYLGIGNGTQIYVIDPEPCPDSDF
row,Binder,binding activity (OD after mutation/OD wild type)
1,B23,90 to 110%
2,B24,90 to 110%
3,B25,90 to 110%
4,B26,90 to 110%
5,B27,90 to 110%
6,B28,90 to 110%
7,B29,90 to 110%
8,B30,90 to 110%
